The target of this assay is T1, Pyrococcus furiosus RPP29 (Pyrococcus furiosus, UniProt Q8U007 1-127).
T1 sequence (looked up): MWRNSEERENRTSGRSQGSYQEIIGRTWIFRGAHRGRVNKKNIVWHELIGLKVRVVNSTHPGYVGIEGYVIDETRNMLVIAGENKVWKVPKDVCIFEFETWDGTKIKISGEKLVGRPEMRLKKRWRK
Put plainly: NMR titration.

B1: Pyrococcus furiosus RPP21 (natural protein)
chain: AKYNEKKEKKRIAKERIDILFSLAERVFPYSPELAKRYVELALLVQQKAKVKIPRKWKRRYCKKCHAFLVPGINARVRLRQKRMPHIVVKCLECGHIMRYPYIKEIKKRRKEKMEYGGLVPR
modifications: 15N-labelled (uniform isotope labelling)
For the molecule B1, the binding result is on record as “binds”.

The record behind these values is PMC2650222 (Biochemistry, 2008).
